Assay results taken from article PMC8523171, “The cooperative binding of TDP-43 to GU-rich RNA repeats antagonizes TDP-43 aggregation”.

Tests used:
TDP-43 RRM1-2 (human) = TDP-43 RRM1-2 (human) (UniProt Q13148); test: ITC; conditions: apparent, one set of sites model, ITC: 15 mM phosphate pH 6.8, 25 mM KCl, 1 mM TCEP, 25 C, NMR: same buffer, 298 K (SEA-HSQC 310 K), EMSA: 20 mM HEPES pH 7.6, 25 mM KCl, 2 mM MgCl2 …
TDP-43 RRM1-2 [1] = target: T1, TDP-43 RRM1-2 (human, UniProt Q13148 101-277); test: NMR and SAXS; same dimer interface as with (GU)12; ITC: 15 mM phosphate pH 6.8, 25 mM KCl, 1 mM TCEP, 25 C; NMR: same buffer, 298 K (SEA-HSQC 310 K); EMSA: 20 mM HEPES pH 7.6, 25 mM KCl, 1 mM TCEP, 2 mM MgCl2, room temperature, 10 pmol DNA in 10 uL; conditions: protein: recombinant; tags: His6 cleaved by TEV; residual N-terminal GSH (180 aa); single strand
T1 sequence (Q13148 101-277): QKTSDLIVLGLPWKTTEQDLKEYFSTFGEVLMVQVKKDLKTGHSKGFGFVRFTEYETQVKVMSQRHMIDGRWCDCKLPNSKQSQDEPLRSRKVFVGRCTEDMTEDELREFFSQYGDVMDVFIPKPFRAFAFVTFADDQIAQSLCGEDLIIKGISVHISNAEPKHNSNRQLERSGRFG

TDP-43 RRM1-2 [2] = target: T1, TDP-43 RRM1-2; test: NMR and SAXS; two RRM1-2 bound; ITC: 15 mM phosphate pH 6.8, 25 mM KCl, 1 mM TCEP, 25 C; NMR: same buffer, 298 K (SEA-HSQC 310 K); EMSA: 20 mM HEPES pH 7.6, 25 mM KCl, 1 mM TCEP, 2 mM MgCl2, room temperature, 10 pmol DNA in 10 uL; conditions: protein: recombinant; tags: His6 cleaved by TEV; residual N-terminal GSH (180 aa); single strand
TDP-43 RRM1-2 [3] = target: T1, TDP-43 RRM1-2; test: NMR; single RRM1-2 bound; ITC: 15 mM phosphate pH 6.8, 25 mM KCl, 1 mM TCEP, 25 C; NMR: same buffer, 298 K (SEA-HSQC 310 K); EMSA: 20 mM HEPES pH 7.6, 25 mM KCl, 1 mM TCEP, 2 mM MgCl2, room temperature, 10 pmol DNA in 10 uL; conditions: protein: recombinant; tags: His6 cleaved by TEV; residual N-terminal GSH (180 aa); single strand
TDP-43 RRM1-2 [4] = target: T1, TDP-43 RRM1-2; test: NMR; additional CSPs and peak broadening; ITC: 15 mM phosphate pH 6.8, 25 mM KCl, 1 mM TCEP, 25 C; NMR: same buffer, 298 K (SEA-HSQC 310 K); EMSA: 20 mM HEPES pH 7.6, 25 mM KCl, 1 mM TCEP, 2 mM MgCl2, room temperature, 10 pmol DNA in 10 uL; conditions: protein: recombinant; tags: His6 cleaved by TEV; residual N-terminal GSH (180 aa); single strand
TDP-43 RRM1-2 [5] = target: T1, TDP-43 RRM1-2; test: ITC; ITC: 15 mM phosphate pH 6.8, 25 mM KCl, 1 mM TCEP, 25 C; NMR: same buffer, 298 K (SEA-HSQC 310 K); EMSA: 20 mM HEPES pH 7.6, 25 mM KCl, 1 mM TCEP, 2 mM MgCl2, room temperature, 10 pmol DNA in 10 uL; conditions: protein: recombinant; tags: His6 cleaved by TEV; residual N-terminal GSH (180 aa); single strand
TDP-43 RRM1 [6] = target: T2, TDP-43 RRM1 (human, UniProt Q13148 101-192); test: ITC; Kd1; ITC: 15 mM phosphate pH 6.8, 25 mM KCl, 1 mM TCEP, 25 C; NMR: same buffer, 298 K (SEA-HSQC 310 K); EMSA: 20 mM HEPES pH 7.6, 25 mM KCl, 1 mM TCEP, 2 mM MgCl2, room temperature, 10 pmol DNA in 10 uL; conditions: protein: recombinant; tags: His6 cleaved by TEV; chain copies: 2; single strand
T2 sequence (Q13148 101-192): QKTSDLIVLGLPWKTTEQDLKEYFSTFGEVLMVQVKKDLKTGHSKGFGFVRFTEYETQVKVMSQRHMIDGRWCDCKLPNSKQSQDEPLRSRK

TDP-43 RRM2 = TDP-43 RRM2 (human, UniProt Q13148 176-277); test: ITC; two protein copies; Kd values not in material; ITC: 15 mM phosphate pH 6.8, 25 mM KCl, 1 mM TCEP, 25 C; NMR: same buffer, 298 K (SEA-HSQC 310 K); EMSA: 20 mM HEPES pH 7.6, 25 mM KCl, 1 mM TCEP, 2 mM MgCl2, room temperature, 10 pmol DNA in 10 uL; conditions: protein: recombinant; tags: His6 cleaved by TEV; chain copies: 2; single strand
Chain of TDP-43 RRM2 (Q13148 176-277): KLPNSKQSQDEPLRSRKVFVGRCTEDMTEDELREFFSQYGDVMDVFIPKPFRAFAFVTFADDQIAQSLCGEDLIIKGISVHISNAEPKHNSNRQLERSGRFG

TDP-43 RRM1 [7] = target: T2, TDP-43 RRM1; test: ITC; ITC: 15 mM phosphate pH 6.8, 25 mM KCl, 1 mM TCEP, 25 C; NMR: same buffer, 298 K (SEA-HSQC 310 K); EMSA: 20 mM HEPES pH 7.6, 25 mM KCl, 1 mM TCEP, 2 mM MgCl2, room temperature, 10 pmol DNA in 10 uL; conditions: protein: recombinant; tags: His6 cleaved by TEV; chain copies: 2; single strand
TDP-43 RRM1-2 [8] = target: T1, TDP-43 RRM1-2; test: ITC; Kd1, first monomer; ITC: 15 mM phosphate pH 6.8, 25 mM KCl, 1 mM TCEP, 25 C; NMR: same buffer, 298 K (SEA-HSQC 310 K); EMSA: 20 mM HEPES pH 7.6, 25 mM KCl, 1 mM TCEP, 2 mM MgCl2, room temperature, 10 pmol DNA in 10 uL; conditions: protein: recombinant; tags: His6 cleaved by TEV; residual N-terminal GSH (180 aa); single strand

Chain of TDP-43 RRM1-2 (human) (Q13148 101-277): as the sequence (Q13148 101-277) above

## CLIP34nt (DNA)
TDP-43 RRM1-2 (human)
  Kd: 270 nM

## GUGUGAAUGAAUGUGUGUGUGUGU (ssRNA) [AUG12-(GU)6]
TDP-43 RRM1-2 [1]
  binding result: binds

## GUGUGUGUGUGUGUGUGUGUGUGU (ssRNA) [(GU)12]
TDP-43 RRM1-2 [2]
  binding result: binds

## GUGUGUGUGUGU (ssRNA) [(GU)6]
TDP-43 RRM1-2 [3]
  binding result: binds

## GUGUGUGUGUGUGUGUGUGUGUGUGUGUGUGUGUGUGUGUGUGUGUGU (ssRNA) [(GU)24]
TDP-43 RRM1-2 [4]
  binding result: binds

## GTGTGTGTGTGT (ssDNA) [(GT)6]
TDP-43 RRM1-2 [5]
  Kd: 68.4 nM
TDP-43 RRM1 [6]
  Kd: 84.4 nM
TDP-43 RRM2
  binding signal: 0.05 Kd1/Kd2 ratio

## GTGTGT (ssDNA) [(GT)3]
TDP-43 RRM1 [7]
  Kd: 929 nM
TDP-43 RRM1-2 [5]
  Kd: 2200 nM

## GTGTGTGTGTGTGTGTGTGTGTGT (ssDNA) [(GT)12]
TDP-43 RRM1 [6]
  Kd: 2300 nM
TDP-43 RRM1-2 [8]
  Kd: 51 nM
